Source: IntAct's records for PubMed 35850301

B1: Maternal protein pumilio (Drosophila melanogaster (Fruit fly)), P25822 (parent)
chain: MKFLGGNDDRNGRGGVGVGTDAIVGSRGGVSQDAADAAGAAAAAAVGYVFQQRPSPGGVGVGVGGVGGGVPGVGAVGSTLHEAAAAEYAAHFAQKQQQTRWACGDDGHGIDNPDKWKYNPPMNPANAAPGGPPGNGSNGGPGAIGTIGMGSGLGGGGGGGAGGGNNGGSGTNGGLHHQSMAAAAANMAAMQQAAALAKHNHMISQAAAAVAAQQQHQHPHQQHPQQQQQQQQAQNQGHPHHLMGGGNGLGNGNGLGIQHPGQQQQQQQQQQQQQHPGQYNANLLNHAAALGHMSSYAQSGGSMYDHHGGAMHPGMNGGMPKQQPLGPPGAGGPQDYVYMGGQTTVPMGAAMMPPQNQYMNSSAVAAANRNAAITTSTAKKLWEKSDGKGVSSSTPGGPLHPLQIPGIGDPSSVWKDHTWSTQGENILVPPPSRAYAHGGASDTSNSGNAGILSPRDSTCAKVVEYVFSGSPTNKDSSLSGLEPHLRNLKFDDNDKSRDDKEKANSPFDTNGLKKDDQVTNSNGVVNGIDDDKGFNRTPGSRQPSPAEESQPRPPNLLFPPLPFNHMLMDHGQGMGGGLGGVVGSGNGVGGGSGGGGAGGAYAAHQQMAAQMSQLQPPMMNGVGGGMPMAAQSPMLNHQAAGPNHMESPGNLLQQQNFDVQQLFRSQNPGLAAVATNAAAAAAAAAAATSAASAAAAVGAPPVPNGSLQQSQQQQQQQQQQQQQQQMHMAAASQQFLAAQQQAQNAAYAAQQATSYVINPGQEAAPYMGMIAAAQMPYYGVAPWGMYPGNLIPQQGTQPRRPLTPSQQGAENQPYQVIPAFLDHTGSLLMGGPRTGTPMRLVSPAPVLVPPGATRAGPPPPQGPQLYQPQPQTAQQNLYSQQNGSSVGGLALNTSSLTGRRDSFDRSTSAFSPSTMDYTSSGVAAAANAVNSTVAQAAAAAAAAAAARGKWPGAMSGAASGAYGALGAGNASASPLGAPITPPPSAQSCLLGSRAPGAESRQRQQQQQQLAAVGLPATAAAAQAAVAAAANNMFGSNSSIFSNPLAIPGTAAVAAAAAAAAAANSRQVAATAAAAAAVAAAAGGVGGAPQPGRSRLLEDFRNQRYPNLQLRDLANHIVEFSQDQHGSRFIQQKLERATAAEKQMVFSEILAAAYSLMTDVFGNYVIQKFFEFGTPEQKNTLGMQVKGHVLQLALQMYGCRVIQKALESISPEQQQEIVHELDGHVLKCVKDQNGNHVVQKCIECVDPVALQFIINAFKGQVYSLSTHPYGCRVIQRILEHCTAEQTTPILDELHEHTEQLIQDQYGNYVIQHVLEHGKQEDKSILINSVRGKVLVLSQHKFASNVVEKCVTHATRGERTGLIDEVCTFNDNALHVMMKDQYANYVVQKMIDVSEPTQLKKLMTKIRPHMAALRKYTYGKHINAKLEKYYMKITNPITVGTGAGGVPAASSAAAVSSGATSASVTACTSGSSTTTTSTTNSLASPTICSVQENGSAMVVEPSSPDASESSSSVVSGAVNSSLGPIGPPTNGNVVL
partner: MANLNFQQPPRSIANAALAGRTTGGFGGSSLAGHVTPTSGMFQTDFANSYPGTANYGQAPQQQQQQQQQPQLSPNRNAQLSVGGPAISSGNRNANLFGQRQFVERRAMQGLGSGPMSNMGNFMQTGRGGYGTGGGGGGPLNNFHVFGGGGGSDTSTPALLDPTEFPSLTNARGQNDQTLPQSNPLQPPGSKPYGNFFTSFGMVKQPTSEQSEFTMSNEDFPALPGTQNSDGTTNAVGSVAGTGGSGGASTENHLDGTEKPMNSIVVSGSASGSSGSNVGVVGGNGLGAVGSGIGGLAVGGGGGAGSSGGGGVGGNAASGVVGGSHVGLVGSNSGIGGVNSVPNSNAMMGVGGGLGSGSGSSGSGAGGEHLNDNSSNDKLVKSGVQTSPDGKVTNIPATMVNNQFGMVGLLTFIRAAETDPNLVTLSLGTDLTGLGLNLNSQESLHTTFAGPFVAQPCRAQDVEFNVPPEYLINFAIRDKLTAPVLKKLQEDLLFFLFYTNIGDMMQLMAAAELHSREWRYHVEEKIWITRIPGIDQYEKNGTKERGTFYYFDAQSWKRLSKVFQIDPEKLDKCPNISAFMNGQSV

Variants of: B1
Conditions: with rga_drome Rga
With F1033A the “effect of a mutation on the interaction” value was “with no effect”.
F1040A was tested, and the “effect of a mutation on the interaction” value was “with no effect”.
With F1033A;F1040A the “effect of a mutation on the interaction” value was “decreasing interaction strength”.

Variants of: B1
Conditions: with rga_drome Rga
Remark: another data set of the same source
For F1033A;F1040A, the “effect of a mutation on the interaction” value was “decreasing interaction strength”.
